Experimental data from article PMC9363427, “The SWI/SNF chromatin remodeling factor DPF3 regulates metastasis of ccRCC by modulating TGF-β signaling” (Nature Communications, 2022).

T1: GST-tagged full-length SNIP1 (recombinant) (human, UniProt Q8TAD8 1-396)
T1 construct: also called SNIP1-FL; source: E. coli BL21 (DE3)-RIL, purified (Glutathione Sepharose 4B, Superdex 200)
T1 sequence (looked up): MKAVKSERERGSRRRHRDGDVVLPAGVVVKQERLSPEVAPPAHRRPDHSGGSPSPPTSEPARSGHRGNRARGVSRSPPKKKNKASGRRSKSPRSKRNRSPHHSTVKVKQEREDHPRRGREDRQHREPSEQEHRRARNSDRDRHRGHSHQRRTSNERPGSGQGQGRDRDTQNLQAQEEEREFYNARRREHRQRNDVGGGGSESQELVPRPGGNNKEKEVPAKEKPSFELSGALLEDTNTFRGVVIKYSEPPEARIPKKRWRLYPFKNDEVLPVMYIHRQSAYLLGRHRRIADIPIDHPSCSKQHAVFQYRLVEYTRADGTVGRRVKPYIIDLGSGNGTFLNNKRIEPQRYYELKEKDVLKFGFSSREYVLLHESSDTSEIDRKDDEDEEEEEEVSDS

B1: Recombinant full-length DPF3a, GST tag removed (natural protein, human, UniProt Q92784-2 1-357, looked up)
chain: MATVIHNPLKALGDQFYKEAIEHCRSYNSRLCAERSVRLPFLDSQTGVAQNNCYIWMEKRHRGPGLAPGQLYTYPARCWRKKRRLHPPEDPKLRLLEIKPEVELPLKKDGFTSESTTLEALLRGEGVEKKVDAREEESIQEIQRVLENDENVEEGNEEEDLEEDIPKRKNRTRGRARGSAGGRRRHDAASQEDHDKPYVCDICGKRYKNRPGLSYHYAHTHLASEEGDEAQDQETRSPPNHRNENHRPQKGPDGTVIPNNYCDFCLGGSNMNKKSGRPEELVSCADCGRSAHLGGEGRKEKEAAAAARTTEDLFGSTSESDTSTFHGFDEDDLEEPRSCRGRRSGRGSPTADKKGSC
notes: Zinc finger protein DPF3, isoform DPF3a, cDNA subcloned into pGEX-6P-1; Expressed with 0.1 mM ZnSO4; also called DPF3a-FL; full-length DPF3a proteins; source: E. coli BL21 (DE3)-RIL, purified (Glutathione Sepharose 4B, 3C protease, Superdex 200)

What was measured:
[1] = target: B1; experiment: pull-down; 1.5 nmol GST-tagged DPF3a or SNIP1 construct on Glutathione Sepharose 4B beads, 2 nmol SNIP1 1-240 or full-length DPF3a added, 4 °C 2 h; 20 mM Tris pH 7.5, 100 mM NaCl, 5 mM β-mercaptomethanol; washes with 0.5% Triton X-100; SDS-PAGE; details: both partners purified
[2] = target: T1, GST-tagged full-length SNIP1 …; experiment: as above; details: both partners purified

Row | binding result [1] | binding result [2] | Binder
1 | binds |  | GST-tagged SNIP1 N-terminus (1-240) (recombinant) (domain or fragment, human, UniProt Q8TAD8 1-240, looked up, also called SNIP1-IDR; source: E. coli BL21 (DE3)-RIL, purified (Glutathione Sepharose 4B, Superdex 200)) MKAVKSERERGSRRRHRDGDVVLPAGVVVKQERLSPEVAPPAHRRPDHSGGSPSPPTSEPARSGHRGNRARGVSRSPPKKKNKASGRRSKSPRSKRNRSPHHSTVKVKQEREDHPRRGREDRQHREPSEQEHRRARNSDRDRHRGHSHQRRTSNERPGSGQGQGRDRDTQNLQAQEEEREFYNARRREHRQRNDVGGGGSESQELVPRPGGNNKEKEVPAKEKPSFELSGALLEDTNTFR
2 |  | binds | B1
